# Source: IntAct's records for PubMed 26280580
# B1: Ras-related protein Rap-1A (Homo sapiens), P62834 (parent)
# chain: MREYKLVVLGSGGVGKSALTVQFVQGIFVEKYDPTIEDSYRKQVEVDCQQCMLEILDTAGTEQFTAMRDLYMKNGQGFALVYSITAQSTFNDLQDLREQILRVKDTEDVPMILVGNKCDLEDERVVGKEQGQNLARQWCNCAFLESSAKSKINVNEIFYDLVRQINRKTPVEKKKPKKKSCLLL
# Variants of: B1
# Conditions: with braf_human BRAF
row,Variant,effect of a mutation on the interaction
1,MREYKLVVLGSGGVGKSALTVQFVQGIFVEKYDPTIEDSYRKQVEVDCQQCMLEILDTAGTEQFTAMRDLYMKNGQGFALVYSITAQSTFNDLQDLREQILRVKDTEDVPMILVGNKCDLEDERVVGKEQGQNLARQWCNCAFLESSAKSKINVNEIFYDLVTQINRKTPVEKKKPKKKSCLLL [R163T],with no effect
